Entries after “also recorded” stand apart in the source; their conditions may differ.
What was measured:
[1] = may vary from cell to cell; related literature; cited from earlier work
[2] = system: bleomycin-induced pulmonary fibrosis (BIPF); test: Bleomycin-induced pulmonary fibrosis mouse model, prevention (inhalation from day 1); type: in vivo; conditions: for Ashcroft score (normal 0, control 6.25): nebulized 1 hour once daily for 10 days from 1 day after bleomycin
Experimental: The experimental animals used were 8-week-old female C57BL/6N (KBSI, Daejeon, Korea) mice, and were set as a normal control group (Normal, PBS) and two dose of administration groups (composition of the present disclosure including rhHAPLN1 protein). The water was changed every two days and the mice were allowed to eat ad libitum, and the mice were placed in one cage of four, and the temperature in the room was kept at 21° C. to 24° C. and the humidity at 40% to 60%, and the day and night cycles were 12 hours each.
To establish a bleomycin-induced pulmonary fibrosis (PF) model, 8-week-old female C57BL/6N mice were used, and divided into 4 groups (Normal, Control, 0.0005% (w/w) rhHAPLN1, 0.0015% (w/w) rhHAPLN1), with 4 mice per group, and the IPF disease induction method was referred to the paper by Liu et al. (Methods in Molecular Biology 2017, DOI: 10.1007/978-1-4939-7113-8_2) (see FIG. 12A). Administration of bleomycin (Bleomycin sulfate from Streptomyces verticillus. B8416; Sigma-Aldrich Co.) to induce idiopathic pulmonary fibrosis (IPF) was performed using a 1 ml-syringe and an oral dosing needle (Oral Zonde Needle 0.9×50 mm; 20 Guage) was used to anesthetize the patient and then carefully instillated orally intratracheally in a single 25 μl dose at a concentration of 2 U/kg, followed by nebulization with fresh 10 ml phosphate-buffered saline (1×PBS, pH 7.4; Gibco Co.) added dropwise to a nebulizer to generate nebulization and be freely inhaled.
Starting 1 day after bleomycin administration, the control was a mixture of 50 μl of a stock solution consisting of 20 mM Tris-HCl, 0.5 M NaCl, pH 8.0, 50% glycerol and 10 ml PBS (1×, pH 7.4, Gibco Co.) solution, while the two groups for the compositions of the present disclosure were treated with 50 μl of rhHAPLN1 stock solution at a rhHAPLN1 weight ratio concentration of 0.0005% (w/w), in other words, 5,000 ng/ml, and 0.0015% (w/w), in other words, 15,000 ng/ml, respectively, were mixed in 10 ml PBS (1×, pH 7.4, Gibco Co.) and administered to each group once a day for 1 hour by nebulization via the nebulizer described above. The weight of each experimental animal was measured every 2 days to confirm that there was no change in weight, and a mass dosing system and aerosol chamber (Data Science International Co.) were used to generate the mist. […]
Next, three tissue slides were prepared per mouse by cutting the middle portion of the left large lobe of the mouse, and three sections were photographed randomly on one slide, and then, for a total of nine sections, the stained darker part was distinguished from the unstained white part, and the area of the stained darker part was measured using Image J software, and each figure obtained was averaged to obtain an average value per mouse. […]

[3] = system: human kidney renal tubule cell (Human Kidney 2, HK-2); test: Fibrosis prevention in HK-2 cells (simultaneous TGFβ1 and drug), αSMA western blot; type: cell-based; conditions: rhHAPLN1 50 ng/ml simultaneously with TGF-β (5 ng/ml), 24 hours
Experimental: (1) Human kidney renal tubule cells (HK-2) were seeded (1.0×10^5 cells/well) in a 6-well plate according to the experimental scheme of FIG. 6A and incubated in RPMI 1640 Medium (11875-093, Gibco) including 10% FBS for 24 hours in an incubator at 37° C. 5% CO2.
(2) The plates were then washed several times with PBS and each well of the plate was simultaneously treated with TGF31 (5 ng/ml) and the composition of the present disclosure (rhHAPLN1 protein content of 0, 5, 10, 20, and 50 ng/ml) and pirfenidone 0.2 mg/mL (200 μg/mL) and incubated for 24 hours.
(3) Each sample was then washed several times with ice-cold PBS, treated with radioimmunoprecipitation assay (RIPA) lysis and extraction buffer (Thermo Scientific) including protease and phosphatase inhibitors, scraped with a scraper, and transferred to an E-tube.
(4) By centrifugation (12000 rpm, 20 minutes, 4° C.), only the supernatant was obtained, and bicinchoninic acid (BCA) assay was performed to obtain quantitative protein values.
(5) After quantification using the obtained quantitative value, cooking was performed at 100° C. for 3 minutes and then stored in a −20° C. refrigerator.
(6) Using a 4% to 15% precast acrylamide PAGE gel, proteins were loaded at 10 μg per lane and run (80V-20 minutes, 120V-1 hour 30 minutes). […]
(11) After washing three times with TBST for 10 minutes each, the samples were detected by Chemidoc.

Molecule: Cc1ccc(=O)n(-c2ccccc2)c1 [pirfenidone, reference compound]
- effective doses in cells [1]: ≥ 100 µg/mL

B1: rhHAPLN1: recombinant human HAPLN1 protein of SEQ ID NO: 1 produced in CHO-K1 cells, stabilized in acetic acid buffer, sucrose, PS80, pH 5.0 (protein, listed as Homo sapiens)
chain: MKSLLLLVLISICWADHLSDNYTLDHDRAIHIQAENGPHLLVEAEQAKVFSHRGGNVTLPCKFYRDPTAFGSGIHKIRIKWTKLTSDYLKEVDVFVSMGYHKKTYGGYQGRVFLKGGSDSDASLVITDLTLEDYGRYKCEVIEGLEDDTVVVALDLQGVVFPYFPRLGRYNLNFHEAQQACLDQDAVIASFDQLYDAWRGGLDWCNAGWLSDGSVQYPITKPREPCGGQNTVPGVRNYGFWDKDKSRYDVFCFTSNFNGRFYYLIHPTKLTYDEAVQACLNDGAQIAKVGQIFAAWKILGYDRCDAGWLADGSVRYPISRPRRRCSPTEAAVRFVGFPDKKHKLYGVYCFRAYN
- Ashcroft score (normal 0, control 6.25) ([2]; composition 1, rhHAPLN1 0.0005% (w/w)): 5.25
- Ashcroft score (normal 0, control 6.25) ([2]; composition 2, rhHAPLN1 0.0015% (w/w)): 0.5
- H&E lung tissue form (FIG. 12B) ([2]; rhHAPLN1 0.0015% (w/w)): quite similar to that of the normal group
- average area of dark (fibrotic) H&E-stained lung area compared to control (FIG. 12C) ([2]; rhHAPLN1 0.0015% (w/w)): reduced to be quite close to the normal group
- fibrosis prevention (αSMA) compared to pirfenidone at 200 μg/mL (FIG. 6B, FIG. 6C) [3]: superior fibrosis prevention action compared to pirfenidone; also recorded: significantly higher
- fibrosis prevention efficacy (αSMA) compared to composition that does not include rhHAPLN1 protein (FIG. 6C) [3]: superior fibrosis prevention efficacy

From patent publication US20240350583A1, “COMPOSITION FOR PREVENTING OR TREATING FIBROTIC DISEASES, COMPRISING HAPLN1” (Chung Ang University Industry Academic Cooperation …, priority 2021, published 2024)
